Data on eleven molecules can be found in PMC4272012 (Nature methods, 2014).

The target in the assay is GFPuv (Aequorea victoria, UniProt P42212, 15N-labeled).

B1: LaG-17 (VHH)
VHH: DVQLVESGGGLVQAGGSLRLSCAASGRTISMAAMSWFRQAPGKEREFVAGISRSAGSAVHADSVKGRFTISRDNTKNTLYLQMNSLKAEDTAVYYCAVRTSGFFGSIPRTGTAFDYWGQGTQVTVS
Take B1: the binding result is listed as “binds”.

B2: LaG-26 (VHH)
VHH: QVQLVESGGGLVQAGASMRLSCAASGITFSLYHWVWFRQAAGREHEFVAGIIRSGGETLSADSVKDRFIISRDDAKNTLYLQMNMLQPEDTATYYCAATHRADWYSSAFREYIFRGQGTQVTVS
With B2, the binding result was “binds”.

B3: LaG-9 (VHH)
VHH: DVQLVESGGGLVQAGGSLRLSCAASGRTFSTSAMGWFRQAPGKEREFVARITWSAGYTAYSDSVKGRFTISRDKAKNTVYLQMNSLKPEDTAVYYCASRSAGYSSSLTRREDYAYWGQGTQVTVS
As to B3, the binding result is given as “binds”.

B4: LaG-14 (VHH)
VHH: QVQLVESGGGLVQAGGSLRLSCAASGRTYSISAMGWFRQAPGKEREFVAGISRSGGTTYYADPVKGRFTISRDNAKNTVYLQMNSLKPEDTAVYYCAARARGWTTFPAREIEYDYWGQGTQVTV
Regarding B4, the binding result is given as “binds”.

B5: LaG-2 (VHH)
VHH: QVQLVESGGGLVQAGGSLRLSCAASGRTFSNYAMGWFRQAPGKEREFVAAISWTGVSTYYADSVKGRFTISRDNDKNTVYVQMNSLIPEDTAIYYCAAVRARSFSDTYSRVNEYDYWGQGTQVTV
As to B5, the binding result is “binds”.

B6: LaG-21 (VHH)
VHH: QVQLVESGGGLVQAGGSLRLSCAASGPTGAMAWFRQAPGMEREFVGGISGSETDTYYADFVKGRLTVDRDNVKNTVDLQMNSLKPEDTAVYYCAARRRVTLFTSRADYDFWGQGTQVTVS
Regarding B6, the binding result is reported as “binds”.

B7: LaG-27 (VHH)
VHH: DVQLVESGGGLVQAGGSLRLSCTASGLTISTYNIGWFRQAPGKEREFVGIIIRNGDTTYYADSVKGRFTISRDNAKNTVYLQMNSVKPADAAVYSCGATVRAGAAAEQYNSYIFRGQGTQVTV
With B7, the binding result is listed as “binds”.

B8: LaG-43 (VHH)
VHH: DVQLVESGGGLVQPGGSLRLSCEASGGAFSTVAMGWFRQAPGKEREFVGAITWTAGSTYYADSAKGRFTISRDNAKNTVHLQMNSLKPEDTAVYYCAQRVRGFFGPLRTTPSWYEYWGQGTQVTVS
In the case of B8, the binding result is reported as “binds”.

B9: LaG-16 (VHH)
VHH: QVQLVESGGRLVQAGDSLRLSCAASGRTFSTSAMAWFRQAPGREREFVAAITWTVGNTILGDSVKGRFTISRDRAKNTVDLQMDNLEPEDTAVYYCSARSRGYVLSVLRSVDSYDYWGQGTQVTVS
Take B9: the binding result is reported as “binds”.

B10: LaG-19 (VHH)
VHH: QVQLVESGGGLVQAGGSLRLSCAASGPTGAMAWFRQAPGKEREFVGGISRSGTDTYYVDSVKGRFTIDRDNAKNTVYLQMNSLKPEDTAVYYCAARRSQILFTSRTDYEFWGQGTQVTV
Consider B10, for which the binding result is reported as “binds”.

B11: LaG-41 (VHH)
VHH: DVQLVESGGGLVQAGGSLRLSCAASGPTGAMAWFRQAPGKEREFVGGISGSETDTYYVDSVKGRFTVDRDNVKNTVYLQMNSLKPEDTAVYYCAARRRITLFTSRTDYDFWGRGTQVTV
For B11, the binding result is on record as “binds”.
